In patent US20090192048A1, “METHOD OF PRODUCING A […] AGENT FOR BINDING A LIGAND” (priority 2005, published 2009):
Ends that are not written are not given here.

Legend:
Assay type in all cases: physicochemical
[1] = Retention of peptides on Greiner polypropylene V-bottom wells; settings: 400V scan
How it was run: (§1)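 Peptides (5 μM) and TAMRA dried from 5 mM tris-HCl pH 8.0 in 75% acetonitrile in V-bottom wells; some wells washed 15 min at room temperature with 1 M NaCl in 10 mM tris-HCl pH 8.0. Residue redissolved in 10 mM tris-HCl pH 8.0/50% acetonitrile; retained fluorescence imaged with 532 nm excitation, 580 BP 30 filter.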

[2] = Retention of peptides in flat-bottomed polypropylene wells; settings: flat-bottom wells, 500V scan
How it was run: (§2)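 1 μl of 10 μM peptide or TAMRA in 10 mM Tris-HCl pH 8.0/50% acetonitrile dried in the dark in flat- or V-bottomed polypropylene wells. Some wells washed 15 min at RT with 1 M NaCl in 10 mM Tris pH 8.0, others left untreated; all redissolved in 50 μl Tris/acetonitrile and fluorescence imaged at 532 nm excitation, 580 BP 30 filter.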

[3] = Retention of peptides in V-bottomed polypropylene wells; settings: V-bottom wells, 500V scan
How it was run: as §2

[4] = Time-dependent persistence of peptide 2DOS-2 on a polypropylene hydrophobic surface in aqueous buffer
Description: The time-dependent persistence of peptide 2DOS-2 (see above) deposited onto a polypropylene hydrophobic surface in the presence of aqueous buffer was investigated as shown below:
Twelve 100 μl aliquots of 5 μM peptide 2DOS-2 in 5 mM tris-HCl (pH 8.0) in 75% (v/v) aqueous acetonitrile were dispensed to the wells of the top row of a Costar microtitre plate.
The peptide samples were allowed to evaporate to dryness in the dark.
The dried peptide samples in wells 1-10 were incubated with 250 μl of 1 M NaCl in 10 mM tris-HCl (pH 8.0) for the time indicated below at room temperature. All supernatants were pipetted up and down 8 times after incubation and the supernatants were then removed and placed in the wells of the bottom row of the microtitre plate.
The residual surface-bound peptides in all twelve wells were finally resuspended in 50 μl of 10 mM tris-HCl (pH 8.0) in 50% (v/v) aqueous acetonitrile and the microtitre plates were imaged at 200 μm resolution on a Typhoon Trio Plus variable mode imager (Amersham Biosciences) with the green (532 nm) laser and the 580 BP 30 filter at the PMT voltages indicated below and at normal sensitivity. The scan height was set at +3 mm and the sample was pressed during scanning.
The fluorescence images were analysed using ImageQuant TL v2003.03 (Amersham Biosciences).

[5] = Retention of peptides on Costar polypropylene V-bottom wells; settings: 400V scan
How it was run: as §1

[6] = washed 15 minutes in 1 M NaCl in 10 mM tris-HCl (pH 8.0)

N-TAMRA-Phe-Asp- Phe-Ala-Phe-Ser- Phe-Lys-Phe-C ({TAMRA}-FDFAFSFKF) [Peptide 2DOS-2]
Percent retention [1]: 78% | Untreated fluorescence ([1]; unwashed): 3,512,023 | Retained fluorescence [1, 6]: 2,731,827 | Percent retention [2]: 93% | Untreated fluorescence ([2]; unwashed): 15,820,680 | Retained fluorescence [2, 6]: 14,665,720 | Percent retention [3]: 86% | Untreated fluorescence ([3]; unwashed): 9,495,183 | Retained fluorescence [3, 6]: 8,127,309 | Percent retention ([4]; 0 minutes in 1 M NaCl/10 mM tris-HCl (pH 8.0)): 90% | Retained fluorescence ([4]; 0 minutes in 1 M NaCl/10 mM tris-HCl (pH 8.0), 300V scan): 904,211 | Stability of retention on polypropylene over time (in words) ([4]; 1 M NaCl/10 mM tris-HCl (pH 8.0), up to 510 minutes): stable for extended periods of time | Percent retention ([4]; 2.5 minutes in 1 M NaCl/10 mM tris-HCl (pH 8.0)): 90% | Retained fluorescence ([4]; 2.5 minutes in 1 M NaCl/10 mM tris-HCl (pH 8.0), 300V scan): 902,082 | Untreated fluorescence (average) ([4]; 300V scan, unwashed wells): 1,000,613 | Percent retention ([4]; 5 minutes in 1 M NaCl/10 mM tris-HCl (pH 8.0)): 85% | Retained fluorescence ([4]; 5 minutes in 1 M NaCl/10 mM tris-HCl (pH 8.0), 300V scan): 847,767 | Percent retention ([4]; 10 minutes in 1 M NaCl/10 mM tris-HCl (pH 8.0)): 79% | Retained fluorescence ([4]; 10 minutes in 1 M NaCl/10 mM tris-HCl (pH 8.0), 300V scan): 792,427 | Percent retention ([4]; 20 minutes in 1 M NaCl/10 mM tris-HCl (pH 8.0)): 75% | Retained fluorescence ([4]; 20 minutes in 1 M NaCl/10 mM tris-HCl (pH 8.0), 300V scan): 749,522 | Percent retention ([4]; 40 minutes in 1 M NaCl/10 mM tris-HCl (pH 8.0)): 77% | Retained fluorescence ([4]; 40 minutes in 1 M NaCl/10 mM tris-HCl (pH 8.0), 300V scan): 769,659 | Percent retention ([4]; 80 minutes in 1 M NaCl/10 mM tris-HCl (pH 8.0)): 74% | Retained fluorescence ([4]; 80 minutes in 1 M NaCl/10 mM tris-HCl (pH 8.0), 300V scan): 740,227 | Percent retention ([4]; 160 minutes in 1 M NaCl/10 mM tris-HCl (pH 8.0)): 74% | Retained fluorescence ([4]; 160 minutes in 1 M NaCl/10 mM tris-HCl (pH 8.0), 300V scan): 739,600 | Percent retention ([4]; 320 minutes in 1 M NaCl/10 mM tris-HCl (pH 8.0)): 81% | Retained fluorescence ([4]; 320 minutes in 1 M NaCl/10 mM tris-HCl (pH 8.0), 300V scan): 805,530 | Percent retention ([4]; 510 minutes in 1 M NaCl/10 mM tris-HCl (pH 8.0)): 80% | Retained fluorescence ([4]; 510 minutes in 1 M NaCl/10 mM tris-HCl (pH 8.0), 300V scan): 803,741 | Percent retention [5]: 94% | Untreated fluorescence ([5]; unwashed): 5,692,134 | Retained fluorescence [5, 6]: 5,349,601
